Measured values as given in the supplement of paper PMC10567573.

B1: BEX1 (parent)
chain: EENMERIGEEVRQLMEKLREKQLS
B2: PBXIP1 (parent)
chain: EKQKQPRWREGTKDSHDPLPSWAE

Variants of: B1
Assay: protein stability index of a GFP-peptide fusion (GPS, HEK-293T) (PSI 1-6); higher = more stable
Details: c terminus: a fixed tail appended
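Also: lentivirally expressed fusions sorted by FACS into six bins by GFP to DsRed ratio, PSI derived from sequencing read proportions per bin multiplied by bin number.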

Protein stability index of substitutions, site by site:
Q13: M 4.5 | G 5.2 | T 3.45 | I 4.23 | H 4.04 | E 5.38 | W 3.37 | P 4.79 | C 4.53
M4: T 5.03 | S 5.45 | Y 4.55
I7: M 4.83 | K 4.23 | R 5.16 | S 5.17 | H 5.86 | Y 4.92 | Q 5.33 | F 4.78 | L 4.74 | G 4.97 | T 5.18 | C 4.87
E9: A 4.76 | Y 4.17 | D 3.63 | S 4.51 | P 4.98 | I 4.39 | F 3.7 | G 4.67 | K 4.2 | N 4.02 | V 4.07
Q22: N 5.16 | M 1.08 | A 2.82 | S 3.92 | W 2.28 | G 4.18 | D 4.73 | C 2.46 | P 3.67 | T 3.59
E5: A 4.28 | V 3.3 | F 4.54 | N 4.96 | Q 4.01 | C 3.74 | P 4.77 | W 3.31 | R 4.33 | L 3.89
L18: P 5.86 | H 5.04 | W 4.84 | C 3.82 | E 5.35 | I 4.48 | K 5.26 | T 5.53 | M 4.59
L14: M 3.38 | V 4.97 | W 4.7 | N 5.76 | Q 5.03 | C 4.33 | Y 4.58 | H 5.03 | R 5.59 | I 4.06
E16: C 3.87 | V 3.31 | P 2.69 | H 4.49 | W 2.85 | N 4.45 | R 3.89 | K 4.32
V11: K 5.09 | F 4.25 | S 3.41 | M 4.63 | H 5.86 | C 4.19 | T 4.5 | D 5.92 | N 5.46 | P 5.37 | G 5.64 | L 4.68 | R 5.38
M15: V 3.78 | W 3.71 | F 4.08 | P 5.5 | N 3.02 | L 4.98 | I 4.87 | T 5.18 | A 2.64 | E 4.89 | Y 4.89
K21: I 3.7 | Y 3.04 | E 3.26 | N 4.61 | S 4.25 | F 4.64 | H 3.15 | W 4.07 | C 1.67 | A 4.11 | T 5.02 | Q 4.53 | D 4.97
R12: I 4.22 | M 4.62 | S 4.85 | C 4.43 | V 5.27 | N 4.1 | L 3.77 | H 5.45 | K 4.78 | P 5.1 | F 4.12
K17: I 3.76 | W 4.17 | G 4.86 | Q 4.38 | D 4.76
L23: A 4.63 | C 4.73 | V 3.88 | T 5.19 | W 4.68 | I 5.26 | Y 5.23 | F 4.58 | M 4.1 | D 5.21 | S 3.89 | E 4.46 | H 4.65 | Q 4.97
R19: N 5.13 | T 4.76 | F 3.95 | K 4.74 | S 4.21 | E 5.31 | P 5.54 | Y 3.92 | L 2.82 | A 4.72 | H 5.32
R6: H 5.43 | K 4.8 | T 4.85 | N 3.84 | I 3.92 | E 5.71 | Q 4.04 | C 4.25 | Y 4.57 | V 4.81 | P 5.03 | A 4.94 | F 3.72 | W 4.69 | G 5.28
G8: H 4.09 | R 4.18 | W 3.44 | E 4.04 | K 4.32 | L 3.33 | Y 4.5 | Q 4.36 | A 3.25 | I 3.62 | T 4.55 | S 4.47 | C 4.73
E10: F 2.91 | L 4.63 | P 4.75 | M 3.51 | D 4.76 | Y 4.13 | S 4.31 | R 2.79 | K 3.89 | A 3.09 | W 3.67 | H 4 | G 4.24 | T 3.96
S24: K 3.54 | D 4.91 | Q 4.95 | F 4.32 | W 3.99 | L 4.21 | G 4.78 | I 3.97 | C 4.8 | V 4.67 | M 4.43 | T 4.29 | Y 3.91
E20: R 4.46 | W 2.19 | L 4.29 | H 3.74 | F 2.75 | S 4.57

Variants of: B2
Assay: as above
Details: c terminus: a fixed tail appended

Protein stability index of substitutions, site by site:
Q3: P 1.63 | R 2.14 | T 1.89 | H 1.78 | S 1.55
A23: S 2.01 | I 2.61 | Q 2.26 | H 4.04 | W 2.76
R7: L 1.32 | G 2.14 | K 2.02 | S 1.23 | C 5.92
P6: E 1.89 | G 2.11 | S 2.4 | C 1.48 | Y 3.67 | W 1.98 | H 2.53
K4: D 1.72 | H 2.66 | A 1.72 | C 2.63 | P 1.56 | N 2.02 | F 1.99 | V 1.21 | T 1.92
L19: T 2.27 | G 2.56 | K 1.68 | N 2.49
K2: P 1.77 | R 2.02 | I 2.63
P18: M 1.88 | Q 1.96
R9: K 2.32 | E 3.15 | C 1.39 | P 1.84
E1: H 2.64 | P 1.22 | T 2.38
E10: T 3.55 | I 2.1
W22: N 5.48 | A 5.8 | S 4.78 | K 5.42 | D 5.82
P20: F 1.52 | R 2
W8: T 1.58 | M 2 | N 3.03 | Y 1.94 | D 3.2 | I 2.06 | F 1.88 | E 3.08 | H 2.41 | R 2.54
S21: H 3.27 | Q 3.03 | E 3.19 | G 2.93 | L 2 | M 2.6
D17: P 1.94 | R 2.27 | A 1.39 | K 1.24
H16: M 1.07 | I 1.98 | V 1.69 | K 1.93
Q5: D 1.99 | K 2.18 | M 1.55 | A 3.71 | Y 2.37
T12: H 2.89 | F 1.33 | R 2.71 | Y 1.01 | K 2.38
D14: S 3.28 | T 1.8 | F 1.46 | M 1.96
K13: H 2.96 | A 2.15 | D 2.18
G11: R 1.46 | H 3.13 | I 1.69 | L 2.31 | F 2.88
S15: L 1.27 | P 1.26 | W 1.54 | C 2.95 | G 1.68 | E 1.37
E24: C 2.66 | K 2.89 | A 2.62 | R 3.34 | W 1.95
